# Data: publication PMC4722173, “Identification of the Elusive Pyruvate Reductase of Chlamydomonas reinhardtii Chloroplasts” (Plant and Cell Physiology, 2015)
# T1: His-tagged Cr-LDH1 (Chlamydomonas reinhardtii, UniProt B0LUZ5)
# T1 construct: residues 45-421, putative 44-residue chloroplast transit peptide removed, C-terminal His tag kept, codon-optimized synthetic gene, pET28b, E. coli KRX; 40 kDa, tetramer (about 200 kDa)
# T1 sequence (B0LUZ5 45-421): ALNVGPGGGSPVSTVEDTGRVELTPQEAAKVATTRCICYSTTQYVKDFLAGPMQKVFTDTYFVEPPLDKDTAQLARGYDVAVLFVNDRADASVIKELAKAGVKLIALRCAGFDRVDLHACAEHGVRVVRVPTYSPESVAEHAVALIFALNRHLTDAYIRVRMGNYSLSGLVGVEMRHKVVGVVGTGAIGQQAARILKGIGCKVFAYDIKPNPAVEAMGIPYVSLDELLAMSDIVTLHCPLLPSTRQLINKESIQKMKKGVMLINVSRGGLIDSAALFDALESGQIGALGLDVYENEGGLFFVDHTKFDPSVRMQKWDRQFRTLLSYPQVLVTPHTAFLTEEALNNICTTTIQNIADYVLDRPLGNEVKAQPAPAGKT
# B1: His-tagged Cr-LDH1 (Chlamydomonas reinhardtii) (protein)
# chain: T1 sequence (B0LUZ5 45-421)
# notes: residues 45-421, putative 44-residue chloroplast transit peptide removed, C-terminal His tag kept, codon-optimized synthetic gene, pET28b, E. coli KRX; 40 kDa, tetramer (about 200 kDa)
# Key:
# [1] = target: PFL1 (pyruvate formate lyase), endogenous, in Chlamydomonas reinhardtii whole-cell extract (Chlamydomonas reinhardtii (endogenous in whole-cell extract)); assay: native gel or EMSA; 1D BN-PAGE of C. reinhardtii whole-cell extracts, immunoblot with Cr-LDH1 or PFL1 antibodies
# [2] = target: His-tagged recombinant Cr-LDH1 (NAD+-dependent D-lactate dehydrogenase encoded by Cre07.g324550), residues 45-421 (Chlamydomonas reinhardtii); assay: crystal structure; sitting drop, approximately 14.5 mg/ml protein with 300 µM NAD+, 20% PEG 3350, 200 mM potassium nitrate; 2.46 Å; tetramer as predicted by PISA
# [3] = target: T1, His-tagged Cr-LDH1; assay: spectrophotometric NADH oxidation at […] nm; format: biochemical; conditions: 300 µM NADH with pyruvate; pH 7.5; 25 °C; mere turnover
# [4] = target: T1, His-tagged Cr-LDH1; assay: X-ray crystallography, […] Å; format: binding; conditions: 300 µM NAD+ in protein solution before crystallization; active site of each monomer, near H378, R311, E340
# [5] = substrate: O=CC(=O)O; assay: purified protein; format: biochemical, Chlamydomonas reinhardtii; conditions: 300 µM NADH, 25 mM sodium phosphate, 250 mM NaCl, pH 7.5, 25 °C
# [6] = substrate: CC(=O)C(=O)O; assay: purified protein; format: biochemical, Chlamydomonas reinhardtii; conditions: 300 µM NADH, 25 mM sodium phosphate, 250 mM NaCl, pH 7.5, 25 °C, mean ± SD of two protein preparations
# [7] = substrate: C[C@@H](O)C(=O)O; assay: purified protein; conditions: 300 µM NAD+, 25 mM sodium phosphate, 250 mM NaCl, pH 7.5, 25 °C
molecule,measurement,setting,value
"PFL1 (pyruvate formate lyase), endogenous, in Chlamydomonas reinhardtii whole-cell extract (enzyme)",stoichiometry N,[1],2
"His-tagged recombinant Cr-LDH1 (NAD+-dependent D-lactate dehydrogenase encoded by Cre07.g324550), residues 45-421 (enzyme)",stoichiometry N,[2],4
NC(=O)C1=CN([C@@H]2O[C@H](COP(=O)(O)OP(=O)(O)OC[C@H]3O[C@@H](n4cnc5c(N)ncnc54)[C@H](O)[C@@H]3O)[C@@H](O)[C@H]2O)C=CC1 [NADH],spectrophotometric NADH oxidation at 340 nm,[3],preference for the reduction of pyruvate to D-lactate and a specificity for NADH
NC(=O)c1ccc[n+]([C@@H]2O[C@H](COP(=O)(O)OP(=O)(O)OC[C@H]3O[C@@H](n4cnc5c(N)ncnc54)[C@H](O)[C@@H]3O)[C@@H](O)[C@H]2O)c1 [NAD^+],"X-ray crystallography, 2.46 Å",[4],NAD^+ molecules added during crystallization were observed in the active site of each monomer
B1,Km,[5],62 mM
same,kcat,[5],60 s⁻¹
same,kcat/Km,[5],1000 M⁻¹ s⁻¹
same,Km,[6],1.46 ± 0.01 mM
same,kcat,[6],370 ± 2 s⁻¹
same,kcat/Km,[6],255000 ± 7000 M⁻¹ s⁻¹
same,Km,[7],70 mM
same,kcat,[7],10 s⁻¹
same,kcat/Km,[7],150 M⁻¹ s⁻¹
